This is an account of results in patent publication US20220357348A1 (FARON PHARMACEUTICALS, published 2022).

The test concerns the target T1, human Clever-1 (Common Lymphatic Endothelial and Vascular Endothelial Receptor-1) expressed on KG-1 cells (human, UniProt Q9NY15 26-2570).
T1 construct: whole, on cells; also called Stabilin-1
Briefly: flow cytometry on KG-1 cells, 4 C, titration 10-0.014 µg/mL, AlexaFluor 647 anti-HuIgG secondary. As for the experimental part:
Excess primary antibody was removed and the cells were then incubated for a further 30 minutes at 4° C. with either an AlexaFluor 647 labelled anti-HulgG or PE labelled anti-rat IgG antibody (ThermoFisher Scientific, Loughborough, UK) at 10 μg/mL. The unbound secondary antibody was washed away, and the cells fixed with BD CellFix (BD Biosciences, Oxford, UK) before analysis. Samples were acquired on an Attune NxT focussing cytometer equipped with a blue and red laser (ThermoFisher Scientific, Loughborough, UK) using the BL2 and RL1 channels for PE and AlexaFluor 647 dyes, respectively. The MFI values were plotted against the antibody concentration. […] The MFI in the absence of primary antibody is represented by a dotted line.
For orientation: A flow cytometer gives signals particle by particle.

T1 sequence (Q9NY15 26-2570): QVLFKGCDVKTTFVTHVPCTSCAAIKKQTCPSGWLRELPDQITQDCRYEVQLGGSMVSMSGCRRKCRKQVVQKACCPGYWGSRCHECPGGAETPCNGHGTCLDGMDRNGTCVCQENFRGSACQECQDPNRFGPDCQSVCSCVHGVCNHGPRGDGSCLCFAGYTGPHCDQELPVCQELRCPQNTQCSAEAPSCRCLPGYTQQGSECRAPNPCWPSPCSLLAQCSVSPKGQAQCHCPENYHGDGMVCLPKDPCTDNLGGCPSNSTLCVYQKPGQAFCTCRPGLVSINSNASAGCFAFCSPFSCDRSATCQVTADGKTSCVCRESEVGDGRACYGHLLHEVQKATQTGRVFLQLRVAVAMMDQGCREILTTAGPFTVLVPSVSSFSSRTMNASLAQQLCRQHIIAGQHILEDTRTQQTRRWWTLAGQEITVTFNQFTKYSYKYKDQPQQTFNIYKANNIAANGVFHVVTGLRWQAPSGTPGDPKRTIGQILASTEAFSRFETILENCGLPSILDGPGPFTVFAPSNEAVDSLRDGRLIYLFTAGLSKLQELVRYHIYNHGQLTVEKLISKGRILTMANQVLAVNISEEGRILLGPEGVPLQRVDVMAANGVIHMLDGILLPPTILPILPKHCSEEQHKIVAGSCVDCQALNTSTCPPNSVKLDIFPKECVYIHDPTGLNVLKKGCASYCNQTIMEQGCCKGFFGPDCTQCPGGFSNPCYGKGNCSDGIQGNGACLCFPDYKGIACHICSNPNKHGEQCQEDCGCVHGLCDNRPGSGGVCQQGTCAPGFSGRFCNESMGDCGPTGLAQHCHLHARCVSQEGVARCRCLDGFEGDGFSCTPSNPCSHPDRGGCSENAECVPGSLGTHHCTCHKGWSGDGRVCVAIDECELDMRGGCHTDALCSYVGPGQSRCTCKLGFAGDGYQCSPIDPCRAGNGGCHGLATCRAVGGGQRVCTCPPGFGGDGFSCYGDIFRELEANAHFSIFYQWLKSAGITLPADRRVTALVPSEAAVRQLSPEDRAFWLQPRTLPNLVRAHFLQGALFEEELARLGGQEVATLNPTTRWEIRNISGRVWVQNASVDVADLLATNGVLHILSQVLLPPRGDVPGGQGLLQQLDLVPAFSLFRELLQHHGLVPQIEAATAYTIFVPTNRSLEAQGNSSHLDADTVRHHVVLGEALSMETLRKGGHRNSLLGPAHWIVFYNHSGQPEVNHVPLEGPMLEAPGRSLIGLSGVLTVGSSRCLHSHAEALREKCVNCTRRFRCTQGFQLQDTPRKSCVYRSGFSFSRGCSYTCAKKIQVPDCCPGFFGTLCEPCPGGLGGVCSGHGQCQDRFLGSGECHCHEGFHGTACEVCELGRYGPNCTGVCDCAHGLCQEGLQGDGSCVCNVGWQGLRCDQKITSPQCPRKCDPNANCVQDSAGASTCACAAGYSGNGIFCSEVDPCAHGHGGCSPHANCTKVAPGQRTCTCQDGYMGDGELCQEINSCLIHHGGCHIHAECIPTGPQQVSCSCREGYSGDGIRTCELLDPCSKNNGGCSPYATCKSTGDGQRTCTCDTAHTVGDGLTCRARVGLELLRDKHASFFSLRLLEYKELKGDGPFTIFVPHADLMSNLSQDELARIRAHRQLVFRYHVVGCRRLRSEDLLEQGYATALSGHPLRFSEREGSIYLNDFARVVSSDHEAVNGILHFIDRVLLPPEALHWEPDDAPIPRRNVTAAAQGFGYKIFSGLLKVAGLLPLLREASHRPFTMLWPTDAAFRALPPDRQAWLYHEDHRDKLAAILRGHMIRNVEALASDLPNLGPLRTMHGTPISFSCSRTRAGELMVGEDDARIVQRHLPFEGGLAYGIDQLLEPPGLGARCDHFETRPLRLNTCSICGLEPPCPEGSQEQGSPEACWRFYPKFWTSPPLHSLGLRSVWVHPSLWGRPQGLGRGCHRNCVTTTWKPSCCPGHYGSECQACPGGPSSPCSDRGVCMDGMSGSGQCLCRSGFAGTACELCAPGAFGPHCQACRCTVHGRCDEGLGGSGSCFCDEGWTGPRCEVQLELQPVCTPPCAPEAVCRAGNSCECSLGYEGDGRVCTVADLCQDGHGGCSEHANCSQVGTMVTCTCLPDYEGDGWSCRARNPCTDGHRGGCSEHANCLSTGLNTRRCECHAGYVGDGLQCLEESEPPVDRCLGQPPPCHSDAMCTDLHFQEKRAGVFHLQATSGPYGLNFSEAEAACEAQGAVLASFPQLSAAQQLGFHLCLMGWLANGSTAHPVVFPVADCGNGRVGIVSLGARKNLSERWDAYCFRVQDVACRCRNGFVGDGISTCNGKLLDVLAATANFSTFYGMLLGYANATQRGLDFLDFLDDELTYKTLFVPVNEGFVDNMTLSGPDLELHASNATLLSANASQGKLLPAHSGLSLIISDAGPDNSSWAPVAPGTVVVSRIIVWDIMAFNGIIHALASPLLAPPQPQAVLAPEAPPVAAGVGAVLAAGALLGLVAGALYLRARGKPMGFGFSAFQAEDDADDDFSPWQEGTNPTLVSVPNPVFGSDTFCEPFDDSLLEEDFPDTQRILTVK

B1: humanized anti-Clever-1 antibody FP-1305 (DSM ACC3361) (antibody, human IgG4 S228P, kappa, V domains shown)
VH: QVTLKESGPTLVKPTQTLTLTCSFSGFSLSTSGMGIGWIRQPPGKALEWLAHIWWDDDKRYNPALKSRLTISKDTSKNQVVLTMTNMDPVDTATYYCARHYGYDPYYAMDYWGQGTLVTVSS
VL: EIVLTQSPGTLSLSPGERATLSCTASSSVSSSYLHWYQQKPGKAPKLLIYRTSNLASGVPSRFSGSGSGTDYTLTISSLQPEDFATYYCHQYHRSPPTFGQGTKLEIKR
notes: Its isotype control is HuIgG4 S241P L248E; also called bexmarilimab
As for B1, the binding result is “binds”.
